# Source: US20040052794, “p53 regulatory protein called RB18A and uses thereof” (published 2004)
# T1: GST-RB18A-N2 (Homo sapiens, UniProt Q15648 SEQ:1234-1566)
# T1 chain: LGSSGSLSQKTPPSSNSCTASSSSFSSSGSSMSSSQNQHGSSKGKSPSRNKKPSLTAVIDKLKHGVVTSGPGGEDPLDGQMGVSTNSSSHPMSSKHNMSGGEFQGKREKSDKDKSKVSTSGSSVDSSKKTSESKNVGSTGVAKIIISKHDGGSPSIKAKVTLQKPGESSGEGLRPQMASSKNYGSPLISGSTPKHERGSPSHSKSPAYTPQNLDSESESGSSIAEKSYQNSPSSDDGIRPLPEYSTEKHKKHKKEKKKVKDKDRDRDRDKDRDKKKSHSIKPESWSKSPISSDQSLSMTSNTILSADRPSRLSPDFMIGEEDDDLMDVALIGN
# What was measured:
# [1] = target: p53 wild-type (Homo sapiens, UniProt P04637 P04637:1-393); test: competition; non-specific oligo did not inhibit the complex with n1; settings: tags: none; plasmid pSP65-p53H8; chain copies: 4
# Experimental: (§1) Part A: four μl of in vitro translated products of wild-type p53 (lanes 2, 5-10) or Luciferase (lanes 3-4) cDNAs were incubated for 20 min at room temperature with 0.2 μg of PAb421 (lane 5) or PAb1801 (lane 6) moAbs or with 1 μg of GST-RB18A-N2 (lanes 4, 7, 8 and 9) or GST-RB18A-Nl1 (lane 10) proteins. Then, a radiolabeled oligonucleotide (0.4 ng per lane) containing the consensus DNA binding site of p53 was added for 20 min at 4° C.
# (§2) EMSA was performed as follows. Translated product (4 μl) was pre-incubated for 20 min at room temperature with 1 μg of GST-RB18A fusion protein or 0.2 μg of moAb in a final reaction volume of 14 μl of buffer A (25 mM Tris, pH 7.4, 80 mM KCl, 0.1 mM EDTA, 1 mM DTT and 10% glycerol). Then, 6 μl of buffer B (80 mM KCl, 16.6 mM MgCl₂ and 3 mg/ml BSA) containing 0.4 ng of labeled oligonucleotide and 0.5 μg of poly(dl-dC) were added and incubation was carried out for 20 min at 4° C. Reaction products were run for 15 min at 200 V on a 4% polyacrylamide gel containing 0.4×Tris-Borate-EDTA (90 mM Tris, 64.6 mM Borate, 2.5 mM EDTA, pH 8.3).
# [2] = target: T1, GST-RB18A-N2; test: EMSA; no direct interaction with p53 oligonucleotide; settings: tags: N-terminal GST; label: 32P; EcoRI-compatible ends
# Experimental: as §1, §2
# Sequence of p53 wild-type (P04637 whole entry, one chain of several): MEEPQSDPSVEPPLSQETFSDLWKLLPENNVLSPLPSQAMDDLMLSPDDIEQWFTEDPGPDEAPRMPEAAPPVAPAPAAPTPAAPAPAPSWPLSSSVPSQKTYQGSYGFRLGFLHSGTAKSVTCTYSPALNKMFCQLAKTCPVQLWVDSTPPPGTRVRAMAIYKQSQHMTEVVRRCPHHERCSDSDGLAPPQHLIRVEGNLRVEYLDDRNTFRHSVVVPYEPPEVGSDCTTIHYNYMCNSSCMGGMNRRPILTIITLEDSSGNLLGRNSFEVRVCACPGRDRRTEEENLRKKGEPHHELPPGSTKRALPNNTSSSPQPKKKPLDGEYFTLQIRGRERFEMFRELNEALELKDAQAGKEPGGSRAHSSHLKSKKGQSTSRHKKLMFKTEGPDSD
Binder,binding result [1],binding result [2]
TL non-specific competitor (dsDNA) DNA 1: TATGTCTAAGGGACCTGCGGTTGGCATTGATCTTG DNA 2: CAAGATCAATGCCAACCGCAGGTCCCTTAGACATA,no binding,
PG p53 consensus oligonucleotide (dsDNA) DNA 1: AATTCAGACATGCCTAGACATGCCTG DNA 2: CAGGCATGTCTAGGCATGTCTGAATT,,no binding
